What was measured:
purified protein [1] = substrate: O=C1O[C@H]([C@@H](O)CO)C(O)=C1O; assay: purified protein; format: biochemical, Neurospora crassa; conditions: H2O2 co-substrate (true Km from kcat app vs [AscA]), 50 mM sodium acetate pH 5.0, 25 °C, no polysaccharide, ping-pong
purified protein [2] = substrate: O=C1O[C@H]([C@@H](O)CO)C(O)=C1O; assay: purified protein; format: biochemical, Streptomyces coelicolor; conditions: H2O2 co-substrate (true Km from kcat app vs [AscA]), 50 mM sodium acetate pH 5.0, 25 °C, no polysaccharide, ping-pong

Protein	Km (purified protein [1]) [µM]	kcat (purified protein [1]) [s⁻¹]	kcat/Km (purified protein [1]) [M⁻¹ s⁻¹]	Km (purified protein [2]) [µM]	kcat (purified protein [2]) [s⁻¹]	kcat/Km (purified protein [2]) [M⁻¹ s⁻¹]
NcAA9C (Neurospora crassa OR74A) (protein, N-terminal His not methylated; copper-saturated; eps280 46,910) HTIFQKVSVNGADQGQLKGIRAPANNNPVTDVMSSDIICNAVTMKDSNVLTVPAGAKVGHFWGHEIGGAAGPNDADNPIAASHKGPIMVYLAKVDNAATTGTSGLKWFKVAEAGLSNGKWAVDDLIANNGWSYFDMPTCIAPGQYLMRAELIALHNAGSQAGAQFYIGCAQINVTGGGSASPSNTVSFPGAYSASDPGILINIYGGSGKTDNGGKPYQIPGPALFTCPAGGSGGSSPAPATTASTPKPTSASAPKPVSTTASTPKPTNGSGSGTGAAHSTKCGGSKPAATTKASNPQPTNGGNSAVRAAALYGQCGGKGWTGPTSCASGTCKFSNDWYSQCLP	145 ± 4	5.3 ± 0.1	36000 ± 1000	–	–	–
ScAA10C (Streptomyces coelicolor A3(2)) (protein, copper-saturated; eps280 75,775; called ScAA10A by slip in places) HGVAMMPGSRTYLCQLDAKTGTGALDPTNPACQAALDQSGATALYNWFAVLDSNAGGRGAGYVPDGTLCSAGDRSPYDFSAYNAARSDWPRTHLTSGATIPVEYSNWAAHPGDFRVYLTKPGWSPTSELGWDDLELIQTVTNPPQQGSPGTDGGHYYWDLALPSGRSGDALIFMQWVRSDSQENFFSCSDVVFDGGNGEVTGIRGSGSTPDPDPTPTPTDPTTPPTHTGSCMAVYSVENSWSGGFQGSVEVMNHGTEPLNGWAVQWQPGGGTTLGGVWNGSLTSGSDGTVTVRNVDHNRVVPPDGSVTFGFTATSTGNDFPVDSIGCVAP	–	–	–	25 ± 2	0.64 ± 0.02	21000 ± 2000
